Key:
Test in all cases: cell-based or functional assay
CCL3 = biological target: T1, CCL3 (human, UniProt P10147 24-92)
T1 sequence: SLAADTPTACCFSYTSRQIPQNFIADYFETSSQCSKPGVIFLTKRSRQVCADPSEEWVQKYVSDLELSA

CCL5 (wild type) = biological target: T2, CCL5 (wild type) (human, UniProt P13501 24-91)
T2 sequence: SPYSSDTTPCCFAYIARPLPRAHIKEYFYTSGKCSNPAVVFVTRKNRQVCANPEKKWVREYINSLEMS

CCL7 = CCL7 (human, UniProt P80098 24-99)
CCL8 = biological target: T3, CCL8 (human, UniProt P80075 24-99)
T3 sequence: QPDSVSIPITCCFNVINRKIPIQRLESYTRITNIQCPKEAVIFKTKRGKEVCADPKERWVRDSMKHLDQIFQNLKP

CCL11 = CCL11 (human, UniProt P51671 24-97)
CCL11, sequence (P51671 24-97): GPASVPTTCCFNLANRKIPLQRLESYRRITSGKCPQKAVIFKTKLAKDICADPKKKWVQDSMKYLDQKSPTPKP

CCL15 = biological target: T4, CCL15 (human, UniProt Q16663)
T4 sequence: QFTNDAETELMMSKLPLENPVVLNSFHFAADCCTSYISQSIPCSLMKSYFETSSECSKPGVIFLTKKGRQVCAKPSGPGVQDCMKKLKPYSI

CCL16 = biological target: T5, CCL16 (human, UniProt O15467 24-120)
T5 sequence: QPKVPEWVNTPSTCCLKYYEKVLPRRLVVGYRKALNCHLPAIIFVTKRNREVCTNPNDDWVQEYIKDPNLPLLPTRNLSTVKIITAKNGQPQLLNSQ

CCL17 = biological target: T6, CCL17 (human, UniProt Q92583 24-94)
T6 sequence: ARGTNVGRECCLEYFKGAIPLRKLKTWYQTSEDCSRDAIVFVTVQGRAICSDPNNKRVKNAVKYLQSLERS

CCL22 = biological target: T7, CCL22 (human, UniProt O00626 25-93)
T7 sequence: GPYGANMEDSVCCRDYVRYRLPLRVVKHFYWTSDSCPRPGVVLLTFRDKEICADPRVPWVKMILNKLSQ

CCL23 = biological target: T8, CCL23 (human, UniProt P55773)
T8 sequence: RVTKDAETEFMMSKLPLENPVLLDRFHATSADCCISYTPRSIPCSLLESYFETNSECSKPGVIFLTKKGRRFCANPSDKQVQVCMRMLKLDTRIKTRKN

CCL24 = biological target: T9, CCL24 (human, UniProt O00175 27-119)
T9 sequence: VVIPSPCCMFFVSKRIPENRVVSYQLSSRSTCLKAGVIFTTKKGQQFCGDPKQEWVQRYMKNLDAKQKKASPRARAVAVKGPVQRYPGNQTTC

CCL26 = biological target: T10, CCL26 (human, UniProt Q9Y258 24-94)
T10 sequence: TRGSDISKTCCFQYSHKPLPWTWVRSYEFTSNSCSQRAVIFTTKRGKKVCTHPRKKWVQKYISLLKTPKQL

CCL3L1 = biological target: T11, CCL3L1 (human, UniProt P16619 24-93)
T11 sequence: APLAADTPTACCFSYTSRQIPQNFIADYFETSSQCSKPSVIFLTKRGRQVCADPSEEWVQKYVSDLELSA

CCL7, sequence (P80098 24-99): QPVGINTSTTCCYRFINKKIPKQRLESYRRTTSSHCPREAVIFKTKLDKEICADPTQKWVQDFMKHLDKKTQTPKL

B1: Evasin-4 (untagged recombinant) (natural protein)
chain: EVPQMTSSSAPDLEEEDDYTAYAPLTCYFTNSTLGLLAPPNCSVLCNSTTTWFNETSPNNASCLLTVDFLTQDAILQENQPYNCSVGHCDNGTCAGPPRHAQCW
modifications: appears to be highly glycosylated (six putative N-glycosylation sites)
- IC50, inhibition of chemotaxis of 300.19CCR1 cells to CCL3 (EC80 1 nM) (CCL3): 2 nM
- IC50, inhibition of chemotaxis of L1.2/CCR5 cells to CCL3 (EC80 40 nM) (CCL3): 4.4 nM
- IC50, inhibition of chemotaxis of 300.19/CCR1 cells to CCL5 (EC80 1 nM) (CCL5 (wild type)): 2.2 nM
- IC50, inhibition of chemotaxis of L1.2/CCR5 cells to CCL5 (EC80 1 nM) (CCL5 (wild type)): 4.8 nM
- IC50, inhibition of chemotaxis of monocytes to CCL5 (EC80 10 nM) (CCL5 (wild type)): 1.5 nM
- IC50, inhibition of chemotaxis of eosinophils to CCL7 (EC80 10 nM) (CCL7): 5 nM
- IC50, inhibition of chemotaxis of L1.2/CCR3 cells to CCL8 (EC80 5 nM) (CCL8): 3.6 nM
- IC50, inhibition of chemotaxis of eosinophils to CCL8 (EC80 10 nM) (CCL8): 3.1 nM
- IC50, inhibition of chemotaxis of L1.2/CCR3 cells to CCL11 (EC80 1 nM) (CCL11): 14 nM
- IC50, inhibition of chemotaxis of eosinophils to CCL11 (EC80 1 nM) (CCL11): 4.9 nM
- IC50, inhibition of chemotaxis of L1.2/CCR3 cells to CCL15 (EC80 100 nM) (CCL15): 88 nM
- IC50, inhibition of chemotaxis of 300.19/CCR1 cells to CCL16 (EC80 250 nM) (CCL16): 304 nM
- IC50, inhibition of chemotaxis of L1.2/CCR4 cells to CCL17 (EC80 1 nM) (CCL17): 69 nM
- IC50, inhibition of chemotaxis of L1.2/CCR4 cells to CCL22 (EC80 1 nM) (CCL22): 38 nM
- IC50, inhibition of chemotaxis of 300.19/CCR1 cells to CCL23 (EC80 10 nM) (CCL23): 2.2 nM
- IC50, inhibition of chemotaxis of L1.2/CCR3 cells to CCL24 (EC80 10 nM) (CCL24): 95 nM
- IC50, inhibition of chemotaxis of L1.2/CCR3 cells to CCL26 (EC80 10 nM) (CCL26): 68 nM
- IC50, inhibition of chemotaxis of eosinophils to CCL26 (EC80 50 nM) (CCL26): 101 nM
- IC50, inhibition of chemotaxis of L1.2/CCR5 cells to CCL3L1 (EC80 1 nM) (CCL3L1): 3.5 nM

Reference: publication PMC4240464 (The Febs Journal, 2013)
